Test system: Escherichia coli TOP10
Experiment: shrunken log2 fold change of peptide-encoding DNA abundance (4.5 h post-induction vs induction); higher = less antimicrobial activity (less host growth inhibition)
Details: time post-induction: 4.5 h; library: site-saturation at positions 5, 18, 19, 20
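Further: peptides expressed intracellularly from a pBAD plasmid library in pooled LB shake-flask culture, induced with 0.3% L-arabinose, DNA abundance read by NGS, three biological replicates, DESeq2 with apeglm shrinkage.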

Row | Sequence | shrunken log2 fold change
1 | RRIRSRPPRLPRPRPRPDHMPRP | -0.00607
2 | RRIRARPPRLPRPRPRPVPLPRP | 0.263
3 | RRIRWRPPRLPRPRPRPVKDPRP | -0.0234
4 | RRIRYRPPRLPRPRPRPDNKPRP | -0.609
5 | RRIRCRPPRLPRPRPRPHLCPRP | -0.111
6 | RRIRPRPPRLPRPRPRPRLNPRP | 0.307
7 | RRIRYRPPRLPRPRPRPKQRPRP | -0.106
8 | RRIRDRPPRLPRPRPRPKETPRP | -0.0231
9 | RRIRDRPPRLPRPRPRPIRQPRP | 0.193
10 | RRIRYRPPRLPRPRPRPYYLPRP | -0.31
11 | RRIRERPPRLPRPRPRPQGIPRP | -0.044
12 | RRIRWRPPRLPRPRPRPDLPPRP | 0.0222
13 | RRIRTRPPRLPRPRPRPLQAPRP | 0.00547
14 | RRIRWRPPRLPRPRPRPKFRPRP | 0.077
15 | RRIRFRPPRLPRPRPRPFENPRP | -0.0822
16 | RRIRKRPPRLPRPRPRPEWAPRP | 0.604
17 | RRIRGRPPRLPRPRPRPGQTPRP | 0.405
18 | RRIRGRPPRLPRPRPRPEVEPRP | 2.03
19 | RRIRDRPPRLPRPRPRPGPFPRP | 0.174
20 | RRIRIRPPRLPRPRPRPTFHPRP | -0.266

Row | Sequence | shrunken log2 fold change
21 | RRIRIRPPRLPRPRPRPLTDPRP | -0.201
22 | RRIRCRPPRLPRPRPRPMPHPRP | -0.0714
23 | RRIRHRPPRLPRPRPRPKSPPRP | -0.0893
24 | RRIRFRPPRLPRPRPRPREWPRP | 0.112
25 | RRIRFRPPRLPRPRPRPQCHPRP | -0.358
26 | RRIRLRPPRLPRPRPRPRGAPRP | 0.425
27 | RRIRERPPRLPRPRPRPWECPRP | -0.0135
28 | RRIRPRPPRLPRPRPRPNVNPRP | -0.46
29 | RRIRCRPPRLPRPRPRPLKEPRP | 0.244
30 | RRIRLRPPRLPRPRPRPSLPPRP | -0.0357
31 | RRIRSRPPRLPRPRPRPHKDPRP | -0.534
32 | RRIRKRPPRLPRPRPRPMGEPRP | -0.0199
33 | RRIRSRPPRLPRPRPRPPTTPRP | 0.391
34 | RRIRHRPPRLPRPRPRPHQHPRP | -0.526
35 | RRIRVRPPRLPRPRPRPHDEPRP | 0.0655
36 | RRIRPRPPRLPRPRPRPYVIPRP | -0.401
37 | RRIRVRPPRLPRPRPRPADIPRP | -0.235
38 | RRIRHRPPRLPRPRPRPIVNPRP | 0.114
39 | RRIRGRPPRLPRPRPRPCDRPRP | 0.00287
40 | RRIRKRPPRLPRPRPRPRHIPRP | -0.0145

Row | Sequence | shrunken log2 fold change
41 | RRIRERPPRLPRPRPRPRWGPRP | 0.239
42 | RRIRLRPPRLPRPRPRPEIEPRP | -0.0912
43 | RRIRHRPPRLPRPRPRPRKAPRP | -0.0445
44 | RRIRTRPPRLPRPRPRPGKTPRP | -0.0222
45 | RRIRRRPPRLPRPRPRPANEPRP | 0.245
46 | RRIRCRPPRLPRPRPRPRHVPRP | -0.0723
47 | RRIRHRPPRLPRPRPRPLFHPRP | -0.462
48 | RRIRARPPRLPRPRPRPCMPPRP | -0.0783
49 | RRIRNRPPRLPRPRPRPYNDPRP | -0.581
50 | RRIRYRPPRLPRPRPRPLHKPRP | 0.0382
51 | RRIRQRPPRLPRPRPRPRLIPRP | -0.076
52 | RRIRFRPPRLPRPRPRPQEVPRP | 0.0758
53 | RRIRTRPPRLPRPRPRPTFQPRP | 0.0412
54 | RRIRCRPPRLPRPRPRPEMLPRP | -0.077
55 | RRIRARPPRLPRPRPRPKEYPRP | -0.15
56 | RRIRDRPPRLPRPRPRPCSWPRP | 0.654
57 | RRIRCRPPRLPRPRPRPCTHPRP | -0.48
58 | RRIRTRPPRLPRPRPRPLQHPRP | -0.257
59 | RRIRGRPPRLPRPRPRPCCQPRP | 0.181
60 | RRIRIRPPRLPRPRPRPHPMPRP | -0.133

From the supplement of paper PMC9112550, “Optimization of the antimicrobial peptide Bac7 by deep mutational scanning” (BMC Biology, 2022)
